Data set [1] has as its target T1, PF14_0633 AP2 domain (Plasmodium falciparum, UniProt Q8IKH2 63-123). The data set is described as follows: X-ray crystallography.
Data set [2] deals with T1, PF14_0633 AP2 domain. The data set is described as follows: size exclusion chromatography. (SEC sorts molecules by how far they enter the pores of the column.)

The source of these data is article PMC2813365.

B1: cognate 8bp (dsDNA)
DNA 1: TGCATGCA
DNA 2: TGCATGCA
Consider B1, for which, in the data set with PF14_0633 AP2 domain [1], the binding result is recorded as “binds”.

B2: non-cognate 17bp (dsDNA)
DNA 1: TGTGCATAGTGGTGCGA
DNA 2: TCGCACCACTATGCACA
Turning to B2, the binding result in the data set with PF14_0633 AP2 domain [2] is recorded as “binds”.
